Assay results reported in paper PMC3500403 (Developmental cell, 2012).

Target: taxol stabilized microtubules (UniProt Q6B856 1-445)
Experiment: co-sedimentation

B1: C. elegans SKA-1 microtubule binding domain (residues 118-243) (domain or fragment, UniProt Q9XWS0 118-243, looked up)
chain: NDIRIVPQITDEEFKTIPKYQLGRLTLEMMNEIVSKMDDFLMKKSKILGKTNKQLTRSDREVLDNWRELEMKARKRLPTTLFFIETDIRPMLQDRLRPSFAKAIPCLRHIRRIREERCGPLTFYYP
- Kd: 6.3 µM
